This experiment deals with T1, CD19 antigen (UniProt P15391 20-556, limits assumed).
T1 construct: whole, on cells; the cell lines are human
T1 sequence (looked up): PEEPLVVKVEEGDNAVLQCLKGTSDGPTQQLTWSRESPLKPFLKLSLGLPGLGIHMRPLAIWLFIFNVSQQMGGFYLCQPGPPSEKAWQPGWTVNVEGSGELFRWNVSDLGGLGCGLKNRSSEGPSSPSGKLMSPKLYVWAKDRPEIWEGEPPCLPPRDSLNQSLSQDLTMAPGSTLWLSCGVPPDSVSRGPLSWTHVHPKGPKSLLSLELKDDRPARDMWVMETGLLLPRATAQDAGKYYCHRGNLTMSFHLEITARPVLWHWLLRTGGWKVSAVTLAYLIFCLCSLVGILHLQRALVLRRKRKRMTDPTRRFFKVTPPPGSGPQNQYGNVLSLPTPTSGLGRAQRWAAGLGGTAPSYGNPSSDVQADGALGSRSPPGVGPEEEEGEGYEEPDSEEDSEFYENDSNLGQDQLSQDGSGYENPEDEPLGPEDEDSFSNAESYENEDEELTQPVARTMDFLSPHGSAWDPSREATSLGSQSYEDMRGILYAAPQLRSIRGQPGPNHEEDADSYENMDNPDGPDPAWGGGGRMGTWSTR
Briefly: flow cytometry on BV173 cells, detected with FITC-labeled Protein L. The procedure: 1. T cell and BV173 cell experimental group: 5 μg of multi-function proteins TiTE-15, 16 were added to BV173 cells and 3×10\hat{ }5 T cells derived from mononuclear cell-rich white membrane layer of normal human peripheral blood by density gradient centrifugation, and stimulated by OKT3 (50 ng/mL) and IL2 (300 IU/mL) for 14 days, and incubated on ice for 30 min. The supernatant was removed by centrifugation and the cells were re-suspended in 200 μL of PBS. 2 μL of FITC-Labeled recombinant Protein L (ACRO Biosystem, RPL-PF141) was added and incubated on ice for 30 min. The supernatant was removed by centrifugation, washed twice in 500 μL PBS, and re-suspended in 200 μL of PBS.
T cell and BV173 cell negative control group: 3*10E5 T cells respectively (PBMC stimulated with 50 ng/mL OKT3, 300 IU/mL IL2) were mixed with BV173 cells (ATCC) first, and 2 μL APC Mouse anti-Human CD279 (BD, Cat. No. 558694) was added to the cells and incubated on ice for 30 min. The supernatant was removed by centrifugation, and the cells were re-suspended in 200 μL of PBS as a negative control.

B1: multifunctional protein TiTE-15 (other)
chain: DIQMTQTTSSLSASLGDRVTISCRASQDISKYLNWYQQKPDGTVKLLIYHTSRLHSGVPSRFSGSGSGTDYSLTISNLEQEDIATYFCQQGNTLPYTFGGGTKLEITGSTSGSGKPGSGEGSTKGEVKLQESGPGLVAPSQSLSVTCTVSGVSLPDYGVSWIRQPPRKGLEWLGVIWGSETTYYNSALKSRLTIIKDNSKSQVFLKMNSLQTDDTAIYYCAKHYYYGGSYAMDYWGQGTSVTVSSGGGGSITCPPPMSVEHADIWVKSYSLYSRERYICNSGFKRKAGTSSLTECVLNKATNVAHWTTPSLKCIRDPALVHQSGGSGGGGSGGGSGGGGSLQDIQMTQSPSSLSASVGDRVTITCRASQDIRNYLNWYQQKPGKAPKLLIYYTSRLESGVPSRFSGSGSGTDYTLTISSLQPEDFATYYCQQGNTLPWTFGQGTKVEIKGGGGSGGGGSGGGGSEVQLVESGGGLVQPGGSLRLSCAASGYSFTGYTMNWVRQAPGKGLEWVALINPYKGVSTYNQKFKDRFTISVDKSKNTAYLQMNSLRAEDTAVYYCARSGYYGDSDWYFDVWGQGTLVTV
notes: Main peptide chain alone, no co-peptide chain
In the case of B1, the binding result is “binds”.
